# Source: patent US20200399381A1 (I MAB BIOPHARMA US, published 2020)
# T1: human IFNAR-1 on cells (human, UniProt P17181 28-557)
# T1 sequence (looked up): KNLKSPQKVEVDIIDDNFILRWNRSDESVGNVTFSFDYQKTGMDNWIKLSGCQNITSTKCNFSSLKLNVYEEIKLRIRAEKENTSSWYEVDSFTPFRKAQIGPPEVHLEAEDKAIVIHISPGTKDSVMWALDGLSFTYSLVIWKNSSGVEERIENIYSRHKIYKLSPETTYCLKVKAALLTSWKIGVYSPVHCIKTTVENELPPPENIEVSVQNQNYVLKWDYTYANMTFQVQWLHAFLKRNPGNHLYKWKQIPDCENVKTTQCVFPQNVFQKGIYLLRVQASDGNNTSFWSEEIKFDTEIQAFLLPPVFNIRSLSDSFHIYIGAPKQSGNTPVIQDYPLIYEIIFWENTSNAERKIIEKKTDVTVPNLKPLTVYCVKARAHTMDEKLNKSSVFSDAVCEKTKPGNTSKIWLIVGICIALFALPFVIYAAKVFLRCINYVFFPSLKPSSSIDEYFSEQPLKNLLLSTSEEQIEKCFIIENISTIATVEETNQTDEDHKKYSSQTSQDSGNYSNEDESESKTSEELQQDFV
# T2: recombinant His-tagged human IFNAR-1-ECD protein (human, UniProt P17181 28-436)
# T2 construct: extracellular domain; the Biacore text says His-tagged human IFNAR-1-ECD; also called His-tagged IFNAR-1; hIFNAR-1 protein; not shown: His tag
# T2 sequence (looked up): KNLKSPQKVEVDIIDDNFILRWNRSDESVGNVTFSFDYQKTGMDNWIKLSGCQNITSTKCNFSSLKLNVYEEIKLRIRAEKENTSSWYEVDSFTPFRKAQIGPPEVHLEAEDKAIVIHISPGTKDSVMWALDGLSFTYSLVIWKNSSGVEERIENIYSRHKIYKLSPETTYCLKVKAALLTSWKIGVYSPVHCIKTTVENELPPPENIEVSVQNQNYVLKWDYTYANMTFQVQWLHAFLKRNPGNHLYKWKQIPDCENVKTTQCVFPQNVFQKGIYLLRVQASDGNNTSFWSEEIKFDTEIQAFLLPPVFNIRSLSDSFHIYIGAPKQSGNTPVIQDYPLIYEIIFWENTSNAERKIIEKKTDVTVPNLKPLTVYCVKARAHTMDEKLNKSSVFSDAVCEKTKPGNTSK
# T3: human IFNAR-1 protein (form not stated) (human, UniProt P17181 28-436, limits assumed)
# T3 construct: bispecific ELISA
# T3 sequence (looked up): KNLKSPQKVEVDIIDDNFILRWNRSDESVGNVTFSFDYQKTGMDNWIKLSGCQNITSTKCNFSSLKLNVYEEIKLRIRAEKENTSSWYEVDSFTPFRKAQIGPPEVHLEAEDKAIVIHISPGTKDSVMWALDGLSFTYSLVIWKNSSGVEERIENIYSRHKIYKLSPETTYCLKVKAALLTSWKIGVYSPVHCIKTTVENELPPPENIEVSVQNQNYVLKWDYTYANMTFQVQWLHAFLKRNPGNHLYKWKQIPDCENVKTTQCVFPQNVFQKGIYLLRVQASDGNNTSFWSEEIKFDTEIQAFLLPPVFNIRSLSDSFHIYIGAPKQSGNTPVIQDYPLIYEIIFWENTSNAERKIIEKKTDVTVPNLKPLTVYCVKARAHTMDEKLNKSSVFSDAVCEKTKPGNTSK
# Tests used:
# human IFNAR-1 on cells = biological target: T1, human IFNAR-1 on cells; experiment: cell-based or functional assay
# [1] = biological target: T2, recombinant His-tagged human …; experiment: ELISA, coated His-tagged IFNAR-1
# Method: This example tested the binding properties of the anti-IFNAR-1 mouse antibodies to the human IFNAR-1 proteins by ELISA assay. In short, His-tagged IFNAR-1 was coated at 0.5 μg/ml overnight and then blocked by 5% BSA in PBS. Serial diluted anti-IFNAR-1 antibodies were incubated with the coated antigen for 1 h at room temperature. The resulting plates were washed with PBS/T and incubated with goat anti-mouse IgG-HRP for 1 h at room temperature. The plates were developed with TMB substrate and analyzed by spectrophotometer at OD 450-630 nm.
# [2] = biological target: T2, recombinant His-tagged human …; experiment: SPR (Biacore T200), antibody captured, His-tagged IFNAR-1-ECD as analyte
# Method: The binding of the antibodies to recombinant His-tagged human IFNAR-1-ECD protein was examined by Biacore T200 using a capture method. The anti-IFNAR-1 antibodies were captured using anti-human Fc antibody or Protein A which were coated on chip. The serial concentrations of his-tagged human IFNAR-1-ECD protein (0-8 nM) were injected over capture antibodies at the flow rate of 30 μl/min. The dissociation phases were 600 s or 1200 s.
# [3] = biological target: T3, human IFNAR-1 protein (form not stated); experiment: affinity ranking of expressed humanized 485G10 IgGs (method not named)
# [4] = biological target: T3, human IFNAR-1 protein (form not stated); experiment: affinity measurement of purified IgG at different concentrations (method not named)
# [5] = biological target: T3, human IFNAR-1 protein (form not stated); experiment: as above; remark: listed apart in the source
# [6] = biological target: T3, human IFNAR-1 protein (form not stated); experiment: affinity ranking of expressed humanized 8G11 IgGs (method not named)
"EC50 (nM), inhibition of IFNα2b-induced SEAP reporter in HEK-Blue IFNα/β cells (human IFNAR-1 on cells) [nM]",EC50 [1] [nM],Kd [3] [nM],koff [3] [s⁻¹],kon [3] [M⁻¹ s⁻¹],Kd [4] [nM],koff [4] [s⁻¹],kon [4] [M⁻¹ s⁻¹],Kd [5] [nM],koff [5] [s⁻¹],kon [5] [M⁻¹ s⁻¹],Kd [6] [nM],koff [6] [s⁻¹],kon [6] [M⁻¹ s⁻¹],Binder,further results
1.21,0.075,,,,,,,,,,,,,"107E12 (antibody, V domains shown, Hybridoma-derived monoclonal antibody) VH: EVQLQQSGAEFVKPGASVKLSCTASGFNIKDYYIHWVTQKTEQGLEWIGRIDPEDGETKYAPKFQDKATITADSSSNTAYLQLSSLTSVDTAVYFCSREGSFTGWFPYWGQGTLVSVSA VL: DIVMTQSQKFMSTSVGDRVSVTCKARQSVGTYVAWYQQKPGQSPKALIYSTSYRYNGVPDRFTGSGSGTDFTLTISNVQSEDLADYFCQQYHSYPYTFGGGTKLEIK",
0.46,0.067,,,,,,,,,,,,,"4D8 (antibody, V domains shown, Hybridoma-derived monoclonal antibody; Chimeric human IgG1 Fc versions were also made) VH: EVRLQQSGAELVQPGASVKLSCTGFGFNIKDYYMHWVKQRTEQGLEWIGRIDPEDAETKYAPKFQGQATITADTSSNTAYVQVSSLSSEDTAVYYCARGGNFYVMDYWGQGTSVTVSS VL: DIVMTQSQKFMSTSVGDRVSVTCKASQNVGTNVVWYQQKPGQSPKVLIYSASYRYSGVPDRFTGSGSGTDFTLIISNVQSEDLAEYFCQQKNSYPYTFGGGTKLEIK",Kd [2]: 0.039 nM; koff [2]: 9.03e-05 s⁻¹; kon [2]: 2.31e+06 M⁻¹ s⁻¹
0.56,0.064,,,,,,,,,,,,,"34H8 (antibody, V domains shown, Hybridoma-derived monoclonal antibody) VH: EVQLLQSGAELVKPGASVRLSCTASGFNIKDYYLHWVKQRTEQGLEWIGRIDPEDGETKYAPKFQGKATITTDTSSNTAYLQLSSLTSEDTAVYYCTRGGNYDVMDYWGQGTSVTVSS VL: DIVMTQSQKFMSTSVGDRVSVTCKASQNVGTYVVWYQQKPGQSPKALIYSASYRYSGVPDRFTGSGSGTDFTLTIGNVQSEDLAEYFCQQKNTYPFTFGGGTKLEIE",Kd [2]: 0.0186 nM; koff [2]: 4.41e-05 s⁻¹; kon [2]: 2.37e+06 M⁻¹ s⁻¹
0.465,0.069,,,,,,,,,,,,,"8G11 (antibody, V domains shown, Hybridoma-derived monoclonal antibody; also called mouse antibody 8G11) VH: EVQLQQSGAELVKPGASVKLSCTGFGFNIKDYYMHWVKQRAEQGLEWIGRIDPEDGETKYAPKFQGKATITADTSSNTAYLQVSSLTSEDTAVYYCARGGNFYVMDYWGQGTSVTVSS VL: DIVMTQSQKFMSTSVGDRVSVTCKASQNVGTNVVWYQQKPGQSPKVLIYSASYRVSGVPDRFTGSGSGTDFTLIISNVQSEDLAEYFCQQKNNYPYTFGGGTKLEIK",Kd [2]: 0.0271 nM; koff [2]: 6.4e-05 s⁻¹; kon [2]: 2.36e+06 M⁻¹ s⁻¹
,,0.325,0.000101,311000,1.24,0.000232,187000,,,,,,,"485G10-H1L3 (antibody, V domains shown, Humanized IgG expressed in HEK293; also called VH1 + VL3 (485G10)) VH: QVQLVQSGAEVKKPGASVKVSCKASGFNIKDYYIHWVRQAPGQGLEWMGRIDPEDAETKYAPKFQGRVTMTADTSISTAYMELSRLRSDDTVVYYCARYHGYWALDYWGQGTLVTVSS VL: DIQMTQSPSSLSTSVGDRVTITCKTSQNVGTNVAWYQQKPGKAPKPLIYSTSYRYSGVPSRFSGSGSGTDFTLTISSVQPEDFATYYCHQYFSYPYTFGPGTKLDIK",
,,0.66,0.000216,327000,1.32,0.000259,196000,,,,,,,"485G10-H1L4 (antibody, V domains shown, Humanized IgG expressed in HEK293; also called VH1 + VL4 (485G10)) VH: QVQLVQSGAEVKKPGASVKVSCKASGFNIKDYYIHWVRQAPGQGLEWMGRIDPEDAETKYAPKFQGRVTMTADTSISTAYMELSRLRSDDTVVYYCARYHGYWALDYWGQGTLVTVSS VL: DIQMTQSPSSLSTSVGDRVTVTCKTSQNVGTNVAWYQQKPGKAPKPLIYSTSYRYSGVPSRFSGSGSGTDFTLTISSVQPEDFATYYCHQYFSYPYTFGPGTKLDIK",
,,0.652,0.000201,308000,1.55,0.000321,207000,,,,,,,"485G10-H1L2 (antibody, V domains shown, Humanized IgG expressed in HEK293; also called VH1 + VL2 (485G10)) VH: QVQLVQSGAEVKKPGASVKVSCKASGFNIKDYYIHWVRQAPGQGLEWMGRIDPEDAETKYAPKFQGRVTMTADTSISTAYMELSRLRSDDTVVYYCARYHGYWALDYWGQGTLVTVSS VL: DIQMTQSPSSLSTSVGDRVTITCKTSQNVGTNVAWYQQKPGKAPKPLIYSTSYRYSGVPSRFSGSGSGTDFTLTISSLQPEDFATYYCHQYFSYPYTFGPGTKVDIK",
,,0.848,0.000238,281000,1.96,0.000366,186000,,,,,,,"485G10-H2L3 (antibody, V domains shown, Humanized IgG expressed in HEK293; also called VH2 + VL3 (485G10)) VH: QVQLVQSGAEVKKPGASVKLSCKASGFNIKDYYIHWVKQAPGQGLEWIGRIDPEDAETKYAPKFQGRVTMTADTSISTAYMELSRLRSDDTVVYYCGRYHGYWALDYWGQGTLVTVSS VL: DIQMTQSPSSLSTSVGDRVTITCKTSQNVGTNVAWYQQKPGKAPKPLIYSTSYRYSGVPSRFSGSGSGTDFTLTISSVQPEDFATYYCHQYFSYPYTFGPGTKLDIK",
,,,,,,,,0.403,9.24e-05,229000,0.439,8.84e-05,202000,"8G11-H2L1 (antibody, V domains shown, Humanized IgG expressed in HEK293; also called VH2 + VL1 (8G11)) VH: QVQLVQSGAEVVKPGASVKVSCKGSGFNIKDYYMHWVRQAPGQGLEWIGRIDPEDAETKYAPKFQGRVTMTADTSTSTVYMELSSLRSEDTAVYYCARGGNFYVMDYWGQGTLVTVSS VL: DIQLTQSPSFLSASVGDRVTITCKASQNVGTNVVWYQQKPGKAPKLLIYSASYRVSGVPSRFSGSGSGTEFTLTISSLQPEDFATYYCQQKNNYPYTFGQGTKLEIK",
,,,,,,,,1.36,0.000219,161000,0.662,9.83e-05,148000,"8G11-H1L1 (antibody, V domains shown, Humanized IgG expressed in HEK293; also called VH1 + VL1 (8G11)) VH: QVQLVQSGAEVKKPGASVKVSCKASGFNIKDYYMHWVRQAPGQGLEWMGRIDPEDAETKYAPKFQGRVTMTRDTSTSTVYMELSSLRSEDTAVYYCARGGNFYVMDYWGQGTLVTVSS VL: DIQLTQSPSFLSASVGDRVTITCKASQNVGTNVVWYQQKPGKAPKLLIYSASYRVSGVPSRFSGSGSGTEFTLTISSLQPEDFATYYCQQKNNYPYTFGQGTKLEIK",
,,,,,,,,0.22,7.47e-05,340000,0.284,8.52e-05,301000,"8G11-H4L3 (antibody, V domains shown, Humanized IgG expressed in HEK293; also called VH4 + VL3 (8G11)) VH: QVQLVQSGAEVVKPGASVKLSCKGSGFNIKDYYMHWVKQAPGQGLEWIGRIDPEDAETKYAPKFQGRATITADTSTSTAYLELSSLRSEDTAVYYCARGGNFYVMDYWGQGTLVTVSS VL: DIQLTQSPSFLSTSVGDRVTITCKASQNVGTNVVWYQQKPGKSPKVLIYSASYRVSGVPSRFSGSGSGTEFTLIISSVQPEDFATYFCQQKNNYPYTFGQGTKLEIK",
,,,,,,,,0.419,0.000125,298000,0.328,9.42e-05,287000,"8G11-H2L2 (antibody, V domains shown, Humanized IgG expressed in HEK293; also called VH2 + VL2 (8G11)) VH: QVQLVQSGAEVVKPGASVKVSCKGSGFNIKDYYMHWVRQAPGQGLEWIGRIDPEDAETKYAPKFQGRVTMTADTSTSTVYMELSSLRSEDTAVYYCARGGNFYVMDYWGQGTLVTVSS VL: DIQLTQSPSFLSTSVGDRVTITCKASQNVGTNVVWYQQKPGKSPKVLIYSASYRVSGVPSRFSGSGSGTEFTLIISSLQPEDFATYYCQQKNNYPYTFGQGTKLEIK",
